The target in assay [1] is T1, human c-Met-ECD-Fc-Flis (human).
T1 construct: Expressed in CHO cells; also called c-Met-ECD with Fc and Flis tag; ECD of human c-MET
Description: SPR (BIAcore), antibody captured by goat anti-mouse Fc, c-Met-ECD-Fc-Flis as analyte, 25 C, 1:1 model, n=2.

The target in assay [2] is T1, human c-Met-ECD-Fc-Flis. Description: SPR (BIAcore).
Assay [3] addresses T2, RON on RON-transfected NIH 3T3 cells (UniProt Q04912 25-1400, limits assumed).
T2 construct: whole, on cells; Formalin-fixed paraffin-embedded cell pellets in IHC; also called RON transfected NIH3T3 Cell Line
Description: IHC on FFPE cell microarray (Dako EnVision FLEX+), manual reading by brightfield microscope. The source says:
For staining human tumor cell lines, 60 million cells may be harvested, formalin-fixed, and processed into histogel. The histogel cell pellets may be embedded into paraffin blocks, cored, and designed into a cell microarray that may be re-embedded in a paraffin block and then microtomed onto slides. These slides may be immunohistochemically stained and counterstained using the IHC assay protocol as described above in Example 7. RON-transfected NIH 3T3 cells and mock NIH 3T3 cells (mouse embryonic fibroblasts) are used as non-c-MET expressing negative controls.

Assay [4] addresses T3, ECD of human RON (R&D Systems, #1947-MS-050) (human, UniProt Q04912 25-957).
T3 construct: extracellular domain; Bought reagent; also called MST1R
Description: IHC pre-absorption/blocking: Antibody II at 2 microgram/mL incubated overnight with RON ECD, then used to stain slides. The procedure:
The antibody, or antigen-binding fragment thereof, of the present invention at 2 microgram/mL may be incubated overnight with either c-Met-ECD-Fc-Flis (SEQ ID NO: 23) or the ECD of human RON (R&D Systems, #1947-MS-050) at 200× molar excess on a rotator at 4° C. After overnight incubation, the antibody, or antigen-binding fragment thereof, of the present invention may be tested against slides of human tissue or cancer cell lines as described above in Example 6.

T1 sequence (chain, as listed by the source limits assumed): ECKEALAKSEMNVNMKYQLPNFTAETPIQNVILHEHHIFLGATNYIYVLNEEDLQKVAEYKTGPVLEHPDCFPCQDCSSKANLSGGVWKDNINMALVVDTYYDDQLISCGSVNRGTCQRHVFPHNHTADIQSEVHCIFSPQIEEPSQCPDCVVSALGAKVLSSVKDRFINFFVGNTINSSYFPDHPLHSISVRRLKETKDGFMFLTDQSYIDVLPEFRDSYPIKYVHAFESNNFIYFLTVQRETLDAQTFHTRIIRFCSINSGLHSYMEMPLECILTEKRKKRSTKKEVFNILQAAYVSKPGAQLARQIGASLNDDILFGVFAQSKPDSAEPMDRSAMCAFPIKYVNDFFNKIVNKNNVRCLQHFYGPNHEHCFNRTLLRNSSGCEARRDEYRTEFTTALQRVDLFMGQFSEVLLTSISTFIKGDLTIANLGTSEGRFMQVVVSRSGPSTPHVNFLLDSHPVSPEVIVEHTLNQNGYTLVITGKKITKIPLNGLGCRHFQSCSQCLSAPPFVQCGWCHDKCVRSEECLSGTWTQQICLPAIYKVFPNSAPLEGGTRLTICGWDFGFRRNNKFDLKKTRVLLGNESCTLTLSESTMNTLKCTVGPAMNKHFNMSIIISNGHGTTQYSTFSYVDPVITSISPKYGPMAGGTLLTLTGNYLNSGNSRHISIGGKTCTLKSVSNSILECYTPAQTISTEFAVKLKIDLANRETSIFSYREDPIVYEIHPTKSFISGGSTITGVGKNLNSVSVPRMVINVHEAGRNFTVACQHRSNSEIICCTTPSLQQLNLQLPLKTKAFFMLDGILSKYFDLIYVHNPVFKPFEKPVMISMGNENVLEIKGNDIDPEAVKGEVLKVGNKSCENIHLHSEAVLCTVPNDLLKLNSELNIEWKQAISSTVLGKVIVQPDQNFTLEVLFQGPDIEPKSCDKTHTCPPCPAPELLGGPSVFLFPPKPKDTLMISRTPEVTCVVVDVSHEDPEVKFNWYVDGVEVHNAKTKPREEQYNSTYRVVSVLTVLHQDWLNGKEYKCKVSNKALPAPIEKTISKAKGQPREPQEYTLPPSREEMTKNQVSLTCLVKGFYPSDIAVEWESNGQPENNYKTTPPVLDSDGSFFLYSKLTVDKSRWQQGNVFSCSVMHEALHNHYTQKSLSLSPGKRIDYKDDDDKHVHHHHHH

B1: Antibody I (antibody, V domains shown)
VH: EVQLQQSGTVLARPGASVKMSCKASGYSFTSYWMYWVKQRPGQGLEWIGGFHPGNSGTNYNQKFKGKAKLTAVTSASTAYMELSSLTNEDSAVYYCTRGYYYDGSFTYWGQGTLVTVSA
VL: EIQMTQSPASLSASVGETVTITCRASENIYSYLAWYQRKQGRSPQLLVYNAKPLAEGVPSRFSGSGSGTQFSLKINSLQPEDFGTYYCQHHYGTPFTFGSGTRLEIKR
notes: Captured by anti-mouse Fc and detected with anti-mouse IgG; also called R-PE-Antibody I (R-phycoerythrin conjugate used in the CTC assay)
Take B1: in the assay with human c-Met-ECD-Fc-Flis [1], the affinity, expressed as Kd, was 2.47 nM; the koff is 0.000302 s⁻¹; the kon was 123000 M⁻¹ s⁻¹.

B2: Antibody II (antibody, V domains shown)
VH: EVQLQQSGTVLARPGASVKMSCKASGYSFTSYWMYWVKQRPGQGLEWIGGFHPRNSGTNYNQKFKGKAKLTAVTSASTAYMELSSLTNEDSAVYYCTRGYYYDGSFTYWGQGTLVTVSA
VL: EIQMTQSPASLSASVGETVTITCRASENIYSYLAWYQRKQGRSPQLLVYNAKPLAEGVPSRFSGSGSGTQFSLKINSLQPEDFGTYYCQHHYGTPFTFGSGTRLEIKR
notes: also called R-PE-Antibody II (R-phycoerythrin conjugate used in the CTC assay); Antibody II (Anti-cMET)
Consider B2, for which the “fold binding affinity compared to Antibody I” value with human c-Met-ECD-Fc-Flis [2] was over 5 fold. In assay [3], the binding result is given as “no binding (tested: 2 µg/mL)”. In the assay with human c-Met-ECD-Fc-Flis [1], this molecule showed a Kd of 0.37 nM, a koff of 4.6e-05 s⁻¹ and a kon of 125000 M⁻¹ s⁻¹. The binding result in assay [4] is listed as “no binding (tested: 200× molar excess)”.

These data come from patent US20150118238A1 (Eli Lilly, published 2015).
